According to paper PMC3408433, “Selective Cytotoxicity of Amidinopiperidine Based Compounds Towards Burkitt’s Lymphoma Cells Involves Proteasome Inhibition” (PLoS ONE, 2012):

Tested on: Cc1cc(=O)oc2cc(NC(=O)[C@H](Cc3ccccc3)NC(=O)[C@@H]3CCCN3C(=O)[C@H](C)NC(=O)[C@H](C)NC(=O)CCC(=O)O)ccc12
Assay: purified protein, by the assay type
Details: other: mean of six independent experiments, pH 7.8, 30°C
Experimental: In short, a 1 nM solution of α-chymotrypsin was mixed with various concentrations of the substrate Suc-Ala-Ala-Pro-Phe-AMC. All the solutions were prepared in 144 mM Tris–HCl, pH 7.8. Substrate hydrolysis was monitored at 30°C on an automated Tecan Safire^2 microplate reader (Tecan, Mannedorf/Zürich, Switzerland). The initial rates of the reactions (ΔF/Δt) were measured immediately after the addition of the substrate (within 200 s) and plotted versus substrate concentration with nonlinear regression to fit a Michaelis-Menten plot. The curve fit and kinetic parameters (Km and v max) were calculated using GraphPad PRISM version 5.0 software (GraphPad Software, Inc., CA, USA). […] The initial velocities of the hydrolysis reactions were measured under the same conditions as described for the determination of Km. 50 µl of α-chymotrypsin solution was added to 50 µl of each inhibitor solution (prepared in 144 mM Tris–HCl, pH 7.8; final concentration 1 nM) and incubated at 30°C for 15 min. The reaction was initiated with the addition of 100 µl of substrate. […] The Ki values were determined as mean values of all measurements.

α-chymotrypsin (Bos taurus)
Km: 66 ± 9 µM
